B1: Armadillo segment polarity protein (Drosophila melanogaster (Fruit fly)), P18824 (parent)
chain: MSYMPAQNRTMSHNNQYNPPDLPPMVSAKEQTLMWQQNSYLGDSGIHSGAVTQVPSLSGKEDEEMEGDPLMFDLDTGFPQNFTQDQVDDMNQQLSQTRSQRVRAAMFPETLEEGIEIPSTQFDPQQPTAVQRLSEPSQMLKHAVVNLINYQDDAELATRAIPELIKLLNDEDQVVVSQAAMMVHQLSKKEASRHAIMNSPQMVAALVRAISNSNDLESTKAAVGTLHNLSHHRQGLLAIFKSGGIPALVKLLSSPVESVLFYAITTLHNLLLHQDGSKMAVRLAGGLQKMVTLLQRNNVKFLAIVTDCLQILAYGNQESKLIILASGGPNELVRIMRSYDYEKLLWTTSRVLKVLSVCSSNKPAIVDAGGMQALAMHLGNMSPRLVQNCLWTLRNLSDAATKVEGLEALLQSLVQVLGSTDVNVVTCAAGILSNLTCNNQRNKATVCQVGGVDALVRTIINAGDREEITEPAVCALRHLTSRHVDSELAQNAVRLNYGLSVIVKLLHPPSRWPLIKAVIGLIRNLALCPANHAPLREHGAIHHLVRLLMRAFQDTERQRSSIATTGSQQPSAYADGVRMEEIVEGTVGALHILARESHNRALIRQQSVIPIFVRLLFNEIENIQRVAAGVLCELAADKEGAEIIEQEGATGPLTDLLHSRNEGVATYAAAVLFRMSEDKPQDYKKRLSIELTNSLLREDNNIWANADLGMGPDLQDMLGPEEAYEGLYGQGPPSVHSSHGGRAFHQQGYDTLPIDSMQGLEISSPVGGGGAGGAPGNGGAVGGASGGGGNIGAIPPSGAPTSPYSMDMDVGEIDAGALNFDLDAMPTPPNDNNNLAAWYDTDC
partner: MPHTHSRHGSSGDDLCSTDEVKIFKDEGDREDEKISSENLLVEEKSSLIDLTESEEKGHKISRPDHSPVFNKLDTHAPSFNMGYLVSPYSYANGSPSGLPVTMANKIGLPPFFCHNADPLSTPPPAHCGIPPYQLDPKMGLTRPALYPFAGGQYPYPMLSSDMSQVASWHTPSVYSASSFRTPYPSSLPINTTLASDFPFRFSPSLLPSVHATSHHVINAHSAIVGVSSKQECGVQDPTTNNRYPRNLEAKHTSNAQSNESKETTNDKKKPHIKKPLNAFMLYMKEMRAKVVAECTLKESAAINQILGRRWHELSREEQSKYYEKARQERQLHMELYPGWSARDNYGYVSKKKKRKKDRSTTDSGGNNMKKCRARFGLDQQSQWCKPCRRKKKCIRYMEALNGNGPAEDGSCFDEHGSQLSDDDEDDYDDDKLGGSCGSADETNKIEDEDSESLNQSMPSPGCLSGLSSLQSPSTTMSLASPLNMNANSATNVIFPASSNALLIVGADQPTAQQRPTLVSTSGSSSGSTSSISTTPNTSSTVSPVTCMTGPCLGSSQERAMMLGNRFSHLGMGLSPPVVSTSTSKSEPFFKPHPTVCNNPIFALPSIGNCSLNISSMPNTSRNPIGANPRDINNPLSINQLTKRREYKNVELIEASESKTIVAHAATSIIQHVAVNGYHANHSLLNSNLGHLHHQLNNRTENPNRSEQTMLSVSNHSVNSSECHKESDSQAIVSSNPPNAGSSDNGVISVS
B2: Armadillo segment polarity protein (Drosophila melanogaster (Fruit fly)), P18824 (parent)
chain: B1 chain
partner: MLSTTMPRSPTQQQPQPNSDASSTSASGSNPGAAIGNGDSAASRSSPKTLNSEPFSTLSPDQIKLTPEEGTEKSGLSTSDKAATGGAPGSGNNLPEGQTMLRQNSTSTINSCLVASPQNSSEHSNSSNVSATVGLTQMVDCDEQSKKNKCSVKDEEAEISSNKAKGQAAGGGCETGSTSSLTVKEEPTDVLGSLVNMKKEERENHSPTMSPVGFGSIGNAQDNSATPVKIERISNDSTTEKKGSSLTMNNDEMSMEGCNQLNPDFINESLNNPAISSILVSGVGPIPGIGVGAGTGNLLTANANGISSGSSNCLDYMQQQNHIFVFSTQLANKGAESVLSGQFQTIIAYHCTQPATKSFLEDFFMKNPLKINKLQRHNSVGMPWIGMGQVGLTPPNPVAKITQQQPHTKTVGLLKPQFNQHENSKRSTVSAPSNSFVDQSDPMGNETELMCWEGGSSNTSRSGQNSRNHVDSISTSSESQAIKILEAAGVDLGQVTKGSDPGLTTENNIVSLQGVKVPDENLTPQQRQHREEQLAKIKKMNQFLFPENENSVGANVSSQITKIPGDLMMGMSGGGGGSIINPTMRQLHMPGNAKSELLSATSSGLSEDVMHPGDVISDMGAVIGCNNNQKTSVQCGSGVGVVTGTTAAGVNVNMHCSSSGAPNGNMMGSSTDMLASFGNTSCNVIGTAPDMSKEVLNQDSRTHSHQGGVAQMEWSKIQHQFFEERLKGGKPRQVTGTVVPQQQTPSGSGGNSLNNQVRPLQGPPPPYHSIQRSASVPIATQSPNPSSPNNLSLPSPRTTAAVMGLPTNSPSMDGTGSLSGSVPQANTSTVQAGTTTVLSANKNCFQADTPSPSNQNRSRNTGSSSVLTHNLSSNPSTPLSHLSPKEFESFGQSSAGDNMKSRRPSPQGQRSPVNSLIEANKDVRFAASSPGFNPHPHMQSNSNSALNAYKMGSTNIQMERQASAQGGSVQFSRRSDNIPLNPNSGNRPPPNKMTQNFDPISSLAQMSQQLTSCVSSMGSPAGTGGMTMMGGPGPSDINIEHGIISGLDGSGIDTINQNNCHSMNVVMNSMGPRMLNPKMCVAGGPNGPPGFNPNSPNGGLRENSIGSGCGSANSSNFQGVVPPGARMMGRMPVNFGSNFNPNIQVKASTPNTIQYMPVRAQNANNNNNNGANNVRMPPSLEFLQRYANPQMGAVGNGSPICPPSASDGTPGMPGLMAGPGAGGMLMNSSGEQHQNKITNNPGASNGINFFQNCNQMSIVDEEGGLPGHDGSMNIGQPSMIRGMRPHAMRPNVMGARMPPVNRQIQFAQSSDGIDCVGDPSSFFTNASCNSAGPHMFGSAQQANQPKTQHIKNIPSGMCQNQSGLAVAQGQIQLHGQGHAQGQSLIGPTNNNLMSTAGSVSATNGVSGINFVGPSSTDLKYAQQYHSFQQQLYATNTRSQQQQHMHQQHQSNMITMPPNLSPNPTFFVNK

This is an account of results in IntAct's records for PubMed 17113272.

The variants in one assay derive from B1. The note with it: with pang1_drome pan.
For the variant D172A, the “effect of a mutation on the interaction” value is on record as “disrupting interaction”.

In a further assay the parent is B2. Conditions: with bcl9_drome lgs.
Regarding D172A, the “effect of a mutation on the interaction” value is “disrupting interaction”.
